{"source": "IntAct's records for PubMed 19250911", "molecular_target": "T1, nbr1_human NBR1 (UniProt Q14596)", "T1 sequence": "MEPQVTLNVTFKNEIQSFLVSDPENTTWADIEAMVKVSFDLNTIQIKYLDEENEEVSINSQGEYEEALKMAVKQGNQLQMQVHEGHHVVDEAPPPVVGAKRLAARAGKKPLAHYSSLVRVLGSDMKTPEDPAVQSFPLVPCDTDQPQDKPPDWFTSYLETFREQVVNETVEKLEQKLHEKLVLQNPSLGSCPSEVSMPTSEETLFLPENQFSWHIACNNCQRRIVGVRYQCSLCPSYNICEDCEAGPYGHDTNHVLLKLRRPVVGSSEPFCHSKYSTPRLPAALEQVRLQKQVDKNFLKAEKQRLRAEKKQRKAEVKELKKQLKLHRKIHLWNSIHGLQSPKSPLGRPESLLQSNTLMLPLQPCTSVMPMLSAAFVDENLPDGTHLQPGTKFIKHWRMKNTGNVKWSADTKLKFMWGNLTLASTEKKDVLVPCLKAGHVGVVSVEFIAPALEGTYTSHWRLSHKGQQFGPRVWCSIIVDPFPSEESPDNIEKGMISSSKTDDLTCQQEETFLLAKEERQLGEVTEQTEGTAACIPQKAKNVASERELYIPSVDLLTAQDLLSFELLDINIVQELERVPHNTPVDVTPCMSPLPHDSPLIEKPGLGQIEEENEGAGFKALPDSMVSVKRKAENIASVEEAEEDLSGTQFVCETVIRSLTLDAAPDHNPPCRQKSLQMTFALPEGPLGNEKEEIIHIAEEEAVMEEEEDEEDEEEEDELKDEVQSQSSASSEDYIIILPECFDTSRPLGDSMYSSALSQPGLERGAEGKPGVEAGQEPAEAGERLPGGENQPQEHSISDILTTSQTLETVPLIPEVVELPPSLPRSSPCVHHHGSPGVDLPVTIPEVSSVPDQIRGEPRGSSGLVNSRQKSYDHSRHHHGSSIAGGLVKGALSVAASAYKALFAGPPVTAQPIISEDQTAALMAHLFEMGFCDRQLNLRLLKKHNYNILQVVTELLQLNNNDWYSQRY", "data": [{"substance": "Microtubule-associated protein 1 light chain 3 beta (Homo sapiens) (from UniProt Q9GZQ8) R70A", "values": [{"measurement": "effect of a mutation on the interaction", "value": "disrupting interaction"}]}, {"substance": "Microtubule-associated protein 1 light chain 3 beta (Homo sapiens) (from UniProt Q9GZQ8) R10A;R11A", "values": [{"measurement": "effect of a mutation on the interaction", "value": "decreasing interaction"}]}]}
